Assay results from patent US7192728B2, “Screening assays for agents that alter inhibitor of apoptosis (IAP) protein regulation of caspase activity” (The Burnham Institute, priority 1997, dated 2007).
Entries after “also recorded” stand apart in the source; their conditions may differ. Where a SMILES comes first, the peptide text is derived from it. The star is where a group is joined. Cbz = O=C(OCc1ccccc1)*; CH2F = FC*

B1: GST-CD40 cytosolic domain: recombinant control protein, GST fusion of CD40 cytosolic domain (protein)
chain: KKVAKKPTNKAPHPKQEPQEINFPDDLPGSNTAAPVQETLHGCQPVTQEDGKESRISVQERQ
modifications: not fully specified; also: GST fusion partner not in chain
B2: c-IAP-2(BIR): construct comprising the BIR domains of c-IAP-2 (positions 1 to 335) (protein)
chain: MNIVENSIFLSNLMKSANTFELKYDLSCELYRMSTYSTFPAGVPVSERSLARAGFYYTGVNDKVKCFCCGLMLDNWKRGDSPTEKHKKLYPSCRFVQSLNSVNNLEATSQPTFPSSVTNSTHSLLPGTENSGYFRGSYSNSPSNPVNSRANQDFSALMRSSYHCAMNNENARLLTFQTWPLTFLSPTDLAKAGFYYIGPGDRVACFACGGKLSNWEPKDNAMSEHLRHFPKCPFIENQLQDTSRYTVSNLSMQTHAARFKTFFNWPSSVLVNPEQLASAGFYYVGNSDDVKCFCCDGGLRCWESGDDPWVQHAKWFPRCEYLIRIKGQEFIRQVQ
modifications: left off: a dimerising Fc or GST

How the values were obtained:
293T cells = experiment: Bax-induced apoptosis and caspase activation in transfected 293T cells; format: cell-based, human; conditions: 24 hr; Bax alone about 25%; zVAD-fmk 50 μM
Method: N-benzyloxycarbonyl-Val-Ala-Asp fluoromethylketone (zVAD-fmk; 50 μM) (Bachem Calif.; Torrance, Calif.) was added immediately after transfection of the Bax plasmid. Transfection efficiency was uniformly 80–90%, as determined by X-Gal staining following cotransfection with pCMV-βGal.
Cells were maintained in culture for 24 hr, then floating and attached cells were harvested and an aliquot was removed and the percent of dead cells was determined by either trypan blue or propidium iodide (PI) dye exclusion assay. A second aliquot was used to assess the percentage of apoptotic cells with subdiploid DNA content by FACS analysis of PI stained, ethanol fixed cells. The remaining cell pellets were lysed in 10 mM HEPES (pH 7.5), 142 mM KCl, 1 mM EGTA, 1 mM DTT, 0.2% NP-40, 0.1 mM PMSF and used for immunoblot analysis or for protease assays.

[1] = test system: DEVD-pNA hydrolysis activity in 293 cell cytosolic extracts; experiment: Cytochrome c/dATP-induced caspase activation (DEVD hydrolysis) in 293 cell cytosolic extracts; format: biochemical, human; conditions: for DEVD-pNA hydrolysis, ΔA405 after 15 min: 293 extracts + cytochrome c/dATP, GST-XIAP 0.2 μM, GST controls 2 μM, His6-S5a 5 μM, untreated ≈0.01
Method: (§1) Cells were washed with ice cold buffer A (20 mM Hepes (pH 7.5), 10 mM KCl, 1.5 mM MgCl2, 1 mM EDTA, 1 mM DTT and 0.1 mM PMSF) and suspended in 1 vol buffer A, then incubated on ice for 20 min. 293 cells were disrupted by passage 15× through a 26 gauge needle and Jurkat T cells were disrupted by dounce homogenization in 2 ml using 15 strokes with a pestle B. Cell extracts (10–15 mg total protein/ml) were clarified by centrifugation at 16,000×g for 30 min, then the NaCl concentration was increased by 50 mM. Cytosolic fractions were used immediately or stored frozen at −80° C.
(§2) Caspase activity was assayed by release of either 7-amino-4-trifluoromethyl-coumarin (AFC) or p-nitroanilide (pNA) from benzylyoxycarbonyl-DEVD (SEQ ID NO: 2) or benzylyoxycarbonyl-YVAD (SEQ ID NO: 3) synthetic peptides using a Molecular Devices Spectromax 340 for AFC labeled peptides or Perkin/Elmer LS50B for pNA labeled peptides (see Example II; see, also, Zhou et al., supra, 1997). Cytosolic extracts from 293 cells or Jurkat T cells were used directly (negative control) or were treated with 1 μM cytochrome c and 1 mM dATP or with cytochrome c, dATP and 0.2 μM GST-XIAP. Additional control reactions were performed by substituting 2 μM GST-Bcl-2, GST-Bax, GST-NM23 or GST-CD40 cytosolic domain, or 5 μM His6-S5a protein for GST-XIAP. DEVD-pNA hydrolysis was measured at various times and multiple experiments were performed using several different GST-XIAP preparations.

[2] = test system: HeLa cell nuclei in cytosolic extract; experiment: Apoptosis of isolated nuclei in cell-free system (cytochrome c/dATP); conditions: 0.4 μM protein with 10 μM cytochrome c and 1 mM dATP; 37° C., 60 min; baseline about 15%, cytochrome c/dATP alone >95%
Method: as §1
Isolated nuclei were prepared from HeLa cells (Martin et al., supra, 1995). Approximately 5×10^4 to 1×10^5 nuclei were added to 20 μl cytosolic extract and apoptosis was initiated by adding 10 μM horse heart cytochrome c (Sigma, Inc.; St. Louis Mo.) and 1 mM dATP, alone (positive control) or with cytochrome c, dATP and either 0.4 μM GST-XIAP or 0.4 μM GST-Bcl-2. Following incubation at 37° C. for 60 min., nuclei were stained with 1 μg/ml of acridine orange and ethidium bromide and the percentage nuclei with apoptotic features, including extremely condensed chromatin and the genesis of fragmentation of nuclei, was determined.

[3] = test system: DEVD-pNA hydrolysis activity in Jurkat T cell cytosolic extracts; experiment: Cytochrome c/dATP-induced caspase activation (DEVD-pNA hydrolysis) in Jurkat T cell cytosolic extracts; format: biochemical; conditions: for DEVD-pNA hydrolysis, ΔA405 after 15 min: untreated ≈0.02; for DEVD-pNA hydrolysis, ΔA405 after 20 min: untreated ≈0.025
Method: as §1, §2

caspase-7 [4] = target: T1, caspase-7 (Homo sapiens, UniProt P55210); experiment: Inhibition of purified recombinant caspase-7, DEVD substrate hydrolysis and progress curves; format: biochemical; conditions: DEVD-pNA hydrolysis
T1 construct: Purified active caspase concentrations ranged from 0.1 nM to 10 nM; His6; made in house; host or cells: E. coli BL21(DE3)pLysS
T1 sequence (P55210 24-198 limits assumed): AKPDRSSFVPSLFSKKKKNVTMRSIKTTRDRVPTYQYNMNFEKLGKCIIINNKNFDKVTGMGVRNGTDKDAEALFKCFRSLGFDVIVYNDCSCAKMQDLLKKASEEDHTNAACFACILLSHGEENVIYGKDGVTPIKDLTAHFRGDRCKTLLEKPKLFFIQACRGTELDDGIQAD
T1 sequence (P55210 207-303 limits assumed): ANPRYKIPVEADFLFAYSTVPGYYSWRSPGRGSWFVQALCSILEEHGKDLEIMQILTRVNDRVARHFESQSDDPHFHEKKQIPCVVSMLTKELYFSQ
Method: Purified recombinant caspase-1, caspase-3, caspase-6, caspase-7 or caspase-8 were incubated with DEVD-pNA, either alone or with a 10-fold to 50-fold molar excess of GST-XIAP (20 μM) and substrate hydrolysis was measured. Purified active caspase concentrations ranged from 0.1 nM to 10 nM. XIAP concentration ranged from 0.1 nM to 500 nM. Assays were performed in caspase buffer (50 mM Tris, pH 7.4, 100 mM NaCl, 10% sucrose, 5–10 mM DTT, 1 mM EDTA and 0.1% CHAPS).

caspase-6 = target: T2, caspase-6 (Homo sapiens, UniProt P55212); experiment: GST pull-down binding to caspase-6; conditions: glutathione-Sepharose beads, immunoblot
T2 construct: Purified active caspase concentrations ranged from 0.1 nM to 10 nM; His6; made in house; host or cells: E. coli BL21(DE3)pLysS
T2 sequence (P55212 24-179 limits assumed): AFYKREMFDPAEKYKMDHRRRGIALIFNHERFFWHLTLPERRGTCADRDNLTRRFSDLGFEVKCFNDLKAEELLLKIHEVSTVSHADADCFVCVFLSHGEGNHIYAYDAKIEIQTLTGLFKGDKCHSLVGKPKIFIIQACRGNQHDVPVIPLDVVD
T2 sequence (P55212 194-293 limits assumed): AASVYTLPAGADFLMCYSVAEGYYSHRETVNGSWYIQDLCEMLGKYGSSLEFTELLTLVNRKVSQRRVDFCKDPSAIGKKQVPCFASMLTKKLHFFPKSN

caspase-3 [5] = target: T3, caspase-3 (Homo sapiens, UniProt P42574); experiment: Inhibition of purified recombinant caspase-3, DEVD substrate hydrolysis and progress curves; format: biochemical; conditions: DEVD-pNA hydrolysis
T3 construct: to produce the 17–20 kDa mature, fully processed large subunit of the active caspase-3 enzyme; a smaller, fully processed, subunit of about 11 kDa; His6; made in house; host or cells: E. coli BL21(DE3)pLysS
T3 sequence (P42574 29-175 limits assumed): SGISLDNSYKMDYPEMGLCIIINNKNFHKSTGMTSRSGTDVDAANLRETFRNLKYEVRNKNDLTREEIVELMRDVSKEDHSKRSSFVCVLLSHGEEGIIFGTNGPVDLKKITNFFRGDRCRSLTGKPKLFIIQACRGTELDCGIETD
T3 sequence (P42574 176-277 limits assumed): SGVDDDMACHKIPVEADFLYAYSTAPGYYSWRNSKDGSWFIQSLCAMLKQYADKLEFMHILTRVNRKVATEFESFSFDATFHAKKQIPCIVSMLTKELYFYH
Method: Purified recombinant caspase-1, caspase-3, caspase-6, caspase-7 or caspase-8 were incubated with DEVD-pNA, either alone or with a 10-fold to 50-fold molar excess of GST-XIAP ([…]) and substrate hydrolysis was measured. Purified active caspase concentrations ranged from 0.1 nM to 10 nM. XIAP concentration ranged from 0.1 nM to 500 nM. Assays were performed in caspase buffer (50 mM Tris, pH 7.4, 100 mM NaCl, 10% sucrose, 5–10 mM DTT, 1 mM EDTA and 0.1% CHAPS).
Equilibria were determined from progress curves when substrate hydrolysis reached a steady-state; slopes were calculated by curve fit analysis using the cricket graph program. Experiments were performed using purified recombinant caspase-3, caspase-6, or caspase-7. DEVD-AFC hydrolysis was measured using 0.1 nM caspase and a range of concentrations (0.2 to 12 μM) of recombinant XIAP (rXIAP). […] Average ratio velocities (vi/vo, where “vi” indicates presence of GST-XIAP and “vo” indicates absence of GST-XIAP) were determined.
Caspase activity was determined essentially as described in Example II, using the benzylyoxycarbonyl-DEVD-AFC (SEQ ID NO: 2) substrate and was assayed at 37° C. using the Perkin-Elmer LS50B fluorometric plate reader in the kinetic mode with excitation and emission wavelengths of 400 nm and 505 nm, respectively. […] Reactions were performed in caspase buffer (50 mM Hepes, 100 mM NaCl, 1 mM EDTA, 0.1% CHAPS, 10% sucrose, 5 mM DTT). The inhibition constant, Ki, was calculated as described (Zhou et al., supra, 1997). Immunoblot analysis was performed as described in Example I.B.3.

caspase-3 [6] = target: T3, caspase-3; experiment: GST pull-down binding to caspase-3; conditions: glutathione-Sepharose beads, immunoblot
Method: (§3) Following incubation at 4° C. for 60 min, the beads were removed by centrifugation and washed twice with 100 vol 50 mM Tris (pH 7.5), 150 mM KCl, 2 mM DTT and 0.025% Triton-X100, then subjected to SDS-PAGE and immunoblot assay (see Example I.B.3).

caspase-7 [7] = target: T1, caspase-7; experiment: GST pull-down binding to caspase-7; conditions: glutathione-Sepharose beads, immunoblot
Method: as §3

| Molecule | apoptotic cells (PI staining) in Bax expressing cells (293T cells) | DEVD-pNA hydrolysis, ΔA405 after 15 min [1] | apoptotic nuclei [2] | DEVD-pNA hydrolysis, ΔA405 after 15 min [3] | DEVD-pNA hydrolysis, ΔA405 after 20 min [3] | inhibition of caspase-7 in vitro (in words) (caspase-7 [4]) | binding of caspase-6 (in words) (caspase-6) | inhibition of caspase-3 in vitro (in words) (caspase-3 [5]) | binding of caspase-3 (in words) (caspase-3 [6]) | binding of caspase-7 (in words) (caspase-7 [7]) | DEVD hydrolysis in activated 293 cell cytosolic extracts (in words) ([1]; 3 μM, extracts activated 30 min with cytochrome c and dATP) |
| --- | --- | --- | --- | --- | --- | --- | --- | --- | --- | --- | --- |
| CC(C)[C@H](NC(=O)OCc1ccccc1)C(=O)N[C@@H](C)C(=O)N[C@@H](CC(=O)O)C(=O)CF [zVAD-fmk, N-benzyloxycarbonyl-Val-Ala-Asp fluoromethylketone, reference compound] (Cbz-Val-Ala-Asp-CH2F) | about 5% |  |  |  |  |  |  |  |  |  |  |
| GST-Bcl-2: recombinant control protein, GST fusion of Bcl-2 [reference compound] |  | ≈ 0.1 | greater than 95% | ≈ 0.09 | ≈ 0.1 |  |  |  |  |  |  |
| B1 |  | ≈ 0.1 |  | ≈ 0.09 | ≈ 0.1 | had no effect | No caspase binding was observed | had no effect | No caspase binding was observed; also recorded: did not bind | No caspase binding was observed; also recorded: did not bind |  |
| B2 |  |  |  |  |  |  |  |  | bound | bound | inhibited DEVD hydrolysis |
